Results: article PMC6602975

Legend:
[1] = biological target: Unmodified nucleosome core particle (X. laevis histone octamer on 147 bp Widom-601 DNA) (X. laevis); assay: native gel or EMSA; increasing amounts of Orc1 or Sir3 proteins with 50 or 25 nM nucleosomes; 10 mM Tris pH 7.5, 50 mM NaCl, 2.5% glycerol, 1 mM DTT; room temperature, 30 min; native PAGE 6% (Sir3) or 8% (Orc1), 0.2X TBE; decrease of free nucleosome; apparent KD from a Hill fit
[2] = biological target: H4K16ac nucleosome (X. laevis | not stated); assay: as above

Orc1 BAH A2P (from UniProt P54784 1-214) (domain or fragment)
fold loss of affinity compared with the WT domain [1]: 2 fold

Orc1 BAH E95K (from UniProt P54784 1-214) (domain or fragment)
fold loss of affinity [1]: 4 fold

Orc1 BAH R202E (from UniProt P54784 1-214) (domain or fragment)
fold decrease in affinity compared with the WT domain [1]: 4.9 fold

Sir3 BAH D205Q (from UniProt P06701 1-214) (domain or fragment)
fold difference in affinity compared with unmodified nucleosome [2]: 4 fold
